This is an account of results in patent publication US11541133B2, “Treatment of cancer cells overexpressing somatostatin receptors using ocreotide derivatives chelated to radioisotopes” (RADIOMEDIX INC., priority 2017, dated 2023).

As a reminder, the tissue uptake is the share of the injected amount in each gram of the tissue.

The test system of data set [1] is AR42J tumors. The experiment in a line: Combination therapy efficacy study with ADRUCIL in AR42J xenograft athymic nude mice (FIGS. 42-43). In kind it is in vivo. Particulars: ADRUCIL alone, 15 mg/kg once weekly, nine injections. As to the method: Athymic nude mice are given AR42J tumors and allowed to grow until tumors reach about 300 mm^3. Mice in treatment groups are injected with 100 μl of 15 mg/kg ADRUCIL® once weekly for a total of nine injections. 10 μCi of ^212Pb-DOTAMTATE is given at either 2 week or 3 week intervals for a total of 3 treatments. The ^212Pb-DOTAMTATE is given within 24 hours after an ADRUCIL® treatment. 10 μCi per 4.1 ng peptide is used, and the cumulative injection dose is 30 μCi. The animals are monitored daily, and calipered and weighed 3 times per week. The animals are sacrificed when termination criteria are met.

Data set [2] in a line: Repeat-dose (fractionated vs single dose) toxicity study in tumor-free CD-1 mice (FIGS. 37-39). It counts as in vivo. Here is the method: Female, tumor free CD-1 mice are injected with one dose of 40 μCi ^212Pb-DOTAMTATE, 2 doses of 20 μCi ^212Pb-DOTAMTATE or three doses of 15 μCi ^212Pb-DOTAMTATE. Animals are given three weeks between doses for these who received multiple treatments. Animals are weighed three times per week and monitored daily for signs of termination criteria (15% weight loss over 2 days or 20% loss from initial weight, lack of grooming over 5 days, lethargy/weakness over 3 days, reduced motility, hunched back, diarrhea, hypothermia). Blood for hematological analysis is collected weekly.

The nature of data set [3]: Dosimetry and bio-distribution of ^203Pb-DOTAMTATE in patients with somatostatin expressing neuroendocrine tumors (SPECT-CT). In kind it is in vivo, human. As to the method: Total of 6 patients are enrolled in the first-in-human open-label, single-dose, dosimetry and bio-distribution of ^203Pb-DOTAMTATE.
All patients (1 female and 5 male) receive an average dose of 4.94 (4.66-5.26) mCi of ^203Pb-DOTAM-TATE and undergo 1 hour, 4 hour, 24 hour and 48 hour post injection SPECT-CT scans. Ethnicity of all 6 patients is Caucasian.
Pharmacokinetic data from ^203Pb-DOTAMTATE imaging are used to calculate the absorbed dose from ^203Pb-DOTAMTATE imaging. The data is then extrapolated to calculate the expected tissue absorbed doses following the administration of ^212Pb-DOTAMTATE for future Targeted Alpha particle Therapy (TAT).

The conditions of data set [4]: mouse, in vivo. The source says: Signs of acute toxicity are examined in a non-GLP repeat dose study to compare single administration vs fractionation (described below). This study is designed based on observations made in athymic nude mice. […] This observation is correlated with the GLP findings that hematological toxicity in the surviving animals from the higher dose groups is recoverable within a month. As renal and hepatic toxicity is cumulative a single dose treatment vs multiple doses leading to the same cumulative dose should be similar (Barendsen, 1964). Fractionated administration of radioactivity three weeks apart compared to a single injection had very similar toxicity profile.

Data set [5] has as its system AR42J cells.
Experimental: Thirty-thousand (3×10^4) AR42J cells are grown in the wells of a 96 well plate for 2 days. Cells are then incubated for 4 hours with increasing doses of ^212Pb-DOTAMTATE ranging from 0 nCi/ml to 800 nCi/ml. Eight wells per group are treated. Cells are washed with PBS to remove drug and then fresh media is introduced. Cells are allowed to incubate for 6 days at 37° C. Cells are then rinsed and incubated with fluorescein diacetate for 30 minutes and read with a fluorimeter at 485/535 nm. Percentage of viable cells is calculated based on untreated cells as a control.
Data set [6] is described as follows: in vivo. The arrangement: species or system mice. Here is the method:
Female CD-1 mice (˜20 g) are injected with a single dose of ^212Pb-DOTAMTATE. Specifically, 10 μCi of ^212Pb-DOTAMTATE is diluted in PBS and 100 μl is administered to the mice via intravenous injection. The animals are sacrificed at predetermined time points of 15 minutes, 1 hour, 4 hours and 24 hours and 48 hours post drug injection. Tissues are collected from each animal and evaluated for amount of radioactive material in each organ by auto gamma counter. Specifically, organs are harvested, weighed and transferred to polypropylene tubes. The tubes are placed in a calibrated Wizard2 γ-counter (PerkinElmer, Shelton, Conn.) and counted for three minutes (204-274 keV). A standard consisting of one-twentieth of the injection volume is counted with each time point. The background is automatically subtracted from the counts. The standard is also used for decay correction. % ID/g is calculated for each organ collected.

Data set [7] in a line: Non-GLP dose range finding (single dose acute toxicity) study in athymic nude mice (FIGS. 35-36). It counts as in vivo. As to the method:
Female athymic nude mice (˜20 g) are injected with a single dose of 10 μCi, 20 μCi, 40 μCi or 60 μCi of ^212Pb-DOTAMTATE or control PBS intravenously. Five animals are assigned per treatment group. Animals are weighed three times per week and monitored daily for signs of termination criteria (15% weight loss over 2 days, lack of grooming over 5 days, lethargy/weakness over 3 days, reduced motility, hunched back, diarrhea, hypothermia). The study is concluded after 4 weeks.

Data set [8] can be described thus: in vivo. The arrangement: species or system mice. Particulars: CD-1, mouse, iv, 10 uCi, total radioactivity. As to the method:
CD-1 mice are injected with 10 μCi of ^212Pb-DOTAMTATE as part of a biodistribution study. Blood is collected at 15 minutes; 1 hour and 4 hours post injection. Body weights determined by taking the average of 10 CD-1 mice at 7 weeks old, the age of the mice in this study and using this weight, blood volume is estimated using the equation by Lee and Blaufox (1985). % ID in blood mice is then calculated for 5 mice per group.

Where [9] appears, read: female, CD-1, mouse, iv, 10 uCi, total radioactivity.

Take `O=c1[nH]cc(F)c(=O)[nH]1` [ADRUCIL®]: the median survival in data set [1] is 2.4 weeks.

Turning to `C[C@@H](O)[C@H](NC(=O)[C@@H]1CSSC[C@H](NC(=O)[C@@H](Cc2ccccc2)NC(=O)CN2CCN(CC(N)=O)CCN(CC(N)=O)CCN(CC(N)=O)CC2)C(=O)N[C@@H](Cc2ccc(O)cc2)C(=O)N[C@H](Cc2c[nH]c3ccccc23)C(=O)N[C@@H](CCCCN)C(=O)N[C@@H]([C@@H](C)O)C(=O)N1)C(=O)O` [^212Pb-DOTAMTATE, ((4R,7S,10S,13R,16S,19R)-13-((1H-indol-3-yl)methyl)-10-(4-aminobutyl)-16-(4-hydroxybenzyl)-7-((R)-1-hydroxyethyl)-6,9,12,15,18-pentaoxo-19-((R)-3-phenyl-2-(2-(4,7,10-tris(2-amino-2-oxoethyl)-1,4,7,10-tetraazacyclododecan-1-yl)acetamido)propanamido)-1,2-dithia-5,8,11,14,17-pentaazacycloicosane-4-carbonyl)-L-threonine chelated to M, metal not drawn], the animals that died in data set [2] (1×40 μCi, nine days after injection) was roughly 40%. Moreover, the animals that died in data set [2] (2×20 μCi, within four weeks of the study, one week after the second dose) came out at 50%. Further, the mortality entry in data set [2] (3×15 μCi, three weeks between doses) is “no mortality”. The “cumulative dose corresponding to the maximum theoretical absorbed dose estimate to kidneys of 23 Gy” value in data set [3] (human, in vivo) is recorded as 32.7 mCi. The “dose per therapy cycle corresponding to the maximum theoretical absorbed kidney dose of 23 Gy” value in data set [3] (patients, dosimetry analysis, 3 cycles) came to 10.9 mCi. In data set [4], the “toxicity compared with single 40 μCi dose” value is reported as “same toxicity profile”. For the same compound, the cytotoxic effect result in data set [5] was “complete cell death”. Besides, in data set [6] (setting [9]), the tissue uptake at 1 h was roughly 30 %ID/g and the tissue uptake at 24 h was roughly 10 %ID/g. For the same compound, the “percent-injected dose per gram, all organs with the exception of the kidneys” value in data set [6] (mouse) was “less than 10%”. For the same compound, the “animals surviving until the end of the four-week study” value in data set [7] (single dose 10 μCi and 20 μCi groups) is given as 100%. Besides, in data set [7] (single dose 60 μCi), the “time of death of all animals” value was 7 days post injection. Further, in data set [8], the tissue uptake dose at 1 h was found to be 1.8 %ID and the tissue uptake dose at 4 h is 0.1 %ID.
